Reference: patent publication US20100015126A1, “Methods of Binding of Cross-Beta Structures By Chaperones” (priority 2006, published 2010)

Columns and labels:
[1] = target: T1, human BiP (Homo sapiens, UniProt P11021); test: ELISA: binding of BiP-FLAG-His to immobilized (misfolded) protein ligands; conditions: ligands coated at 5 μg/ml; 6BB peptides and oxLDL 50 μg/ml
T1 construct: The human BiP gene except the signal peptide encoding region was obtained from Geneart (Germany); linker […]; made in house; host or cells: HEK 293E cells, transient transfection, PABC674 vector; secreted into the medium
Description: Enzyme Linked Immunosorbent Assay for Testing of Chaperone Binding to Misfolded Proteins
(§1) Binding of chaperones to immobilized (misfolded) protein ligands was determined using an enzyme linked immuno sorbent assay (ELISA) approach. For this purpose 50 μl/well of potential ligands at indicated concentrations or coat buffer only for control and background measurement purposes, were coated overnight at 4° C. or coated for 1 h at room temperature, with motion, in 50 mM NaHCO3 pH 9.6 (coat buffer). In general, ligands were coated at 5 μg/ml, unless stated otherwise. For example, BiP binding peptides 6BB# and oxLDL were coated at 50 μg/ml. Native haemoglobin (Sigma-Aldrich, H7379), albumin, IgIV Gammagard and ovalbumin controls were prepared from lyophilized stocks. The controls were prepared by dissolving lyophilized proteins at 1 mg/ml in PBS upon resuspending by pipetting, followed by a 30 minutes period at the roller device, at room temperature. The protein solutions were centrifuged for 10 minutes at 16,000*g and diluted in coat buffer. After coating the plates were washed at least three times with 50 mM Tris-HCl pH 7.3, 150 mM NaCl, 0.1% v/v Tween20, and blocked with Blocking reagent (Roche Diagnostics, Almere, The Netherlands; 11112589001), for 1 h at room temperature, with motion. Plates were washed three times and incubated in triplicate with indicated chaperone dilution series, at 50 μl/well, for 1 h at room temperature, with constant motion. For HSP90, 5 mM DTT is incorporated in the binding buffer (PBS/0.1% Tween20) to avoid unwanted disulfide bond formation of the HSP90. Plates were washed three times and incubated with anti-FLAG antibody (mouse antibody, M2, peroxidase conjugate; Sigma, A-8592) for BiP-FLAG-His, anti-His-tag antibody (Mouse Monoclonal Antibody, Cat. No. 70796, Novagen [0.2 mg/ml]) for HSP60, a 1:1 mix of 500-fold diluted anti-HSP90beta antibodies (Stressgen, SPA-643 [mouse monoclonal IgM], SPA-646 [rabbit polyclonal]) for HSP90 and an anti-DnaK antibody (Stressgen, 023SPA-880D [mouse monoclonal antibody]) for DnaK. After four wash cycles, secondary antibodies were added to the wells when required, 50 μl/well, for 45′ at room temperature, with motion. RAMPO and SWARPO were used at 3000 times dilution. […] In a second experiment with more immobilized misfolded proteins and controls, the detection of bound HSP90 with the mix of two anti-HSP90 antibodies was achieved by mixing 1:1500 SWARPO with 1:3000 RAMPO. After 5 washes with wash buffer followed by two washes with PBS, binding of antibodies was assessed. Bound anti-FLAG-PO, peroxidase-conjugated rabbit anti-mouse immunoglobulins (RAMPO, P0260, DAKOCytomation, Glostrup, Denmark) or peroxidase-coupled swine anti-rabbit immunoglobulins (SWARPO, P0217, DAKOCytomation) was visualized with tetramethylbenzidine (TMB, #45.01.20,/#45.014.01, Biosource, Nivelles, Belgium). The reaction was stopped after 5 minutes with 1% H2SO4 in H2O. Plates were read at 450 nm. Triplicates were averaged and standard deviations calculated. Background signals obtained with buffer-coated wells were subtracted (binding of primary antibody to empty wells), as well as background signals obtained with ligand-coated wells in which the chaperones were omitted (binding of primary and secondary antibody to coated ligands). Subsequently, sub-optimal concentrations of chaperones for binding to misfolded protein ligands are determined, and these concentrations are used for inhibition studies. […] We have previously identified that a sub-fraction of IgIV molecules has affinity for misfolded proteins comprising crossbeta structure (pending patent application). Moreover, we identified that the sub-fraction of IgIV molecules directly binds to crossbeta structure and/or crossbeta structure induced conformation (not shown; pending patent application). […]

[2] = target: T1, human BiP; test: Competition ELISA: BiP binding to misfolded proteins under influence of crossbeta binding compounds; conditions: fixed sub-optimal BiP concentration
Description: Binding of chaperones to immobilized (misfolded) protein ligands was determined using an enzyme linked immuno sorbent assay (ELISA) approach. For this purpose 50 μl/well of potential ligands at indicated concentrations or coat buffer only for control and background measurement purposes, were coated overnight at 4° C. or coated for 1 h at room temperature, with motion, in 50 mM NaHCO3 pH 9.6 (coat buffer). In general, ligands were coated at 5 μg/ml, unless stated otherwise. For example, BiP binding peptides 6BB# and oxLDL were coated at 50 μg/ml. Native haemoglobin (Sigma-Aldrich, H7379), albumin, IgIV Gammagard and ovalbumin controls were prepared from lyophilized stocks. The controls were prepared by dissolving lyophilized proteins at 1 mg/ml in PBS upon resuspending by pipetting, followed by a 30 minutes period at the roller device, at room temperature. The protein solutions were centrifuged for 10 minutes at 16,000*g and diluted in coat buffer. After coating the plates were washed at least three times with 50 mM Tris-HCl pH 7.3, 150 mM NaCl, 0.1% v/v Tween20, and blocked with Blocking reagent (Roche Diagnostics, Almere, The Netherlands; 11112589001), for 1 h at room temperature, with motion. Plates were washed three times and incubated in triplicate with indicated chaperone dilution series, at 50 μl/well, for 1 h at room temperature, with constant motion. For HSP90, 5 mM DTT is incorporated in the binding buffer (PBS/0.1% Tween20) to avoid unwanted disulfide bond formation of the HSP90. […] After four wash cycles, secondary antibodies were added to the wells when required, 50 μl/well, for 45′ at room temperature, with motion. RAMPO and SWARPO were used at 3000 times dilution. […] In a second experiment with more immobilized misfolded proteins and controls, the detection of bound HSP90 with the mix of two anti-HSP90 antibodies was achieved by mixing 1:1500 SWARPO with 1:3000 RAMPO. After 5 washes with wash buffer followed by two washes with PBS, binding of antibodies was assessed. Bound anti-FLAG-PO, peroxidase-conjugated rabbit anti-mouse immunoglobulins (RAMPO, P0260, DAKOCytomation, Glostrup, Denmark) or peroxidase-coupled swine anti-rabbit immunoglobulins (SWARPO, P0217, DAKOCytomation) was visualized with tetramethylbenzidine (TMB, #45.01.20,/#45.014.01, Biosource, Nivelles, Belgium). The reaction was stopped after 5 minutes with 1% H2SO4 in H2O. Plates were read at 450 nm. Triplicates were averaged and standard deviations calculated. Background signals obtained with buffer-coated wells were subtracted (binding of primary antibody to empty wells), as well as background signals obtained with ligand-coated wells in which the chaperones were omitted (binding of primary and secondary antibody to coated ligands). Subsequently, sub-optimal concentrations of chaperones for binding to misfolded protein ligands are determined, and these concentrations are used for inhibition studies.
In a subsequent study we analysed whether BiP interacts directly with the crossbeta structure, by performing ELISA binding studies with a fixed sub-optimal concentration of BiP and concentration series of crossbeta binding compounds. The results are depicted in FIGS. 12, 13 and Table 7. Binding of BiP without added crossbeta binding compounds was set to 100%.

[3] = target: T2, Escherichia coli HSP70 family member DnaK (Escherichia coli, UniProt P0A6Y8); test: ELISA: binding of DnaK to immobilized (misfolded) protein ligands
T2 construct: purchased Stressgen (Ann Arbor, Mich., USA) SPP-630
Description: Recombinant Escherichia coli (E. coli) DnaK was purchased from Stressgen (Ann Arbor, Mich., USA; SPP-630). For the binding studies first lot B502468 (100 μg, lot A) and then lot 05240609 (200 μg, lot B) was used.
as §1

[4] = Transmission electron microscopy (TEM); assay type: physicochemical; conditions: 2.5 mg/ml peptide stocks
Description: Transmission Electron Microscopy (TEM)
TEM images were collected using a Jeol 1200 EX transmission electron microscope (Jeol Ltd., Tokyo, Japan) at an excitation voltage of 80 kV. For each sample, the formvar and carbon-coated side of a 100-mesh copper or nickel grid was positioned on a 5 μl drop of protein solution for 5 minutes. Afterwards, it was positioned on a 100 μl drop of PBS for 2 minutes, followed by three 2-minute incubations with a 100 μl drop of distilled water. The grids were then stained for 2 minutes with a 100 μl drop of 2% (m/v) methylcellulose with 0.4% uranyl acetate pH 4. Excess fluid was removed by streaking the side of the grids over filter paper, and the grids were subsequently dried under a lamp. Samples were analysed at a magnification of 10K.

[5] = target: T1, human BiP; test: ELISA: binding of BiP in cell culture supernatant to immobilized misfolded proteins; conditions: undiluted supernatant of 293E cells overexpressing BiP; ligands coated at 5 μg/ml, Aβ 20 μg/ml
Description: Binding of BiP to Misfolded Proteins with Crossbeta Structure
Proteins at 5 μg/ml were coated for 1 h at room temperature with agitation, in Microlon high-binding ELISA plates (Greiner) in 50 mM NaHCO3 pH 9.6, except for Aβ that was coated at 20 μg/ml. Buffer was coated as negative control. A twofold dilutions series of cell culture supernatant of HEK 293E cells overexpressing BiP was also coated to the plate for anti-FLAG-tag antibody control purposes. Plates were washed and blocked with ½*Blocking reagent (Roche). Undiluted cell culture supernatant enriched with 0.1% Tween20 was added to the wells with immobilized protein ligands and incubated for 1 h at room temperature with agitation. Medium was discarded and the plate was washed with PBS with 0.1% v/v Tween20. Mouse monoclonal anti-FLAG-tag antibody (Sigma, A8592, anti-FLAG M2PO conjugate) was diluted 1000× in PBS/0.1% Tween20 and added to all wells, including those that are coated with cell culture supernatant. After a 1 h incubation at room temperature with agitation and after washing, wells were overlayed with 3000× diluted RAMPO (DAKOCytomation) in PBS/0.1% Tween20. After 30 minutes the plate was washed and bound peroxidase was visualised with tetramethylbenzidine (TMB, #45.103.20/#45.014.01, Biosource, Nivelles, Belgium). The reaction was stopped after 5 minutes with 10% H2SO4 in H2O. Plates were read at 450 nm.

T1 sequence (P11021 19-654): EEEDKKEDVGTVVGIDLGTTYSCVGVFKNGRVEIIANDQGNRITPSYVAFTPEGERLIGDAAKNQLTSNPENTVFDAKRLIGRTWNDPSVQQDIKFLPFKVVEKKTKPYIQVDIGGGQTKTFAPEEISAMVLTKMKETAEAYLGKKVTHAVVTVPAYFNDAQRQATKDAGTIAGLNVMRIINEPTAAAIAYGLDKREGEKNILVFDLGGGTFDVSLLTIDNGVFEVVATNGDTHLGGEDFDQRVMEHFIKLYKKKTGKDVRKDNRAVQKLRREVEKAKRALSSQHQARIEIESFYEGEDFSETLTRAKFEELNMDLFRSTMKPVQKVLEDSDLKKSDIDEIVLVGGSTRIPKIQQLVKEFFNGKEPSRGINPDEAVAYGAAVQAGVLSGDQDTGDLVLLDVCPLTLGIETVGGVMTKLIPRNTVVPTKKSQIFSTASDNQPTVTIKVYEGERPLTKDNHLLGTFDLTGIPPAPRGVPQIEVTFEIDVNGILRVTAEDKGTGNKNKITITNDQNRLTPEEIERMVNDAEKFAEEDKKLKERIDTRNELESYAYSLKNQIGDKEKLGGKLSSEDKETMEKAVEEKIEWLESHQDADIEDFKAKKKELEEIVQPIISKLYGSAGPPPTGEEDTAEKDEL
T2 sequence (P0A6Y8 whole entry): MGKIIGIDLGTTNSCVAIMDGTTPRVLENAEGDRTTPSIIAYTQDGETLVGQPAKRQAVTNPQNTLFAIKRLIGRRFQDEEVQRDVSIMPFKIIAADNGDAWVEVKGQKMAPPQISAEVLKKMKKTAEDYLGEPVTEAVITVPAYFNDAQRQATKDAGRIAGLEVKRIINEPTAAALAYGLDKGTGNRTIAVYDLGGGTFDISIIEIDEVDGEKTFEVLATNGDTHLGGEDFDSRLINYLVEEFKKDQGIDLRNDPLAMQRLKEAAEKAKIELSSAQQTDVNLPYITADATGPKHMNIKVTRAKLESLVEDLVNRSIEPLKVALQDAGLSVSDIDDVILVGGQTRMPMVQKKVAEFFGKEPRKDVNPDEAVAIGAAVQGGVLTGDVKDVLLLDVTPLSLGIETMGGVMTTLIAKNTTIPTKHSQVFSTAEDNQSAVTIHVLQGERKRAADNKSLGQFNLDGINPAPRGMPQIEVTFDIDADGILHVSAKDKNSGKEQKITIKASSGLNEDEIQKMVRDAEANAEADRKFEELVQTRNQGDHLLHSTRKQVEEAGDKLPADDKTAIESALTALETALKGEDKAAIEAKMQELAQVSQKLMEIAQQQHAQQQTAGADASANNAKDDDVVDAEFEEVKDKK

Row | Substance | Binding of concentration series of BiP to coated ligand [1] | Influence of Congo red on interaction of BiP with misfolded protein ([2]; concentration series of Congo red) | Influence of ThS on interaction of BiP with misfolded protein ([2]; concentration series of ThS) | Influence of ThT on interaction of BiP with misfolded protein ([2]; concentration series of ThT) | Binding of concentration series of DnaK to coated ligand [3] | TEM [4] | Binding of BiP to immobilized protein (ELISA) [5]
1 | HWDFAWPW [6BB10] | has been established | ↓ (a ↓ sign refers to inhibited abolished binding of BiP) | ↓ (a ↓ sign refers to inhibited abolished binding of BiP) | ↓ (a ↓ sign refers to inhibited abolished binding of BiP) | did not bind | Nothing visible^† | 
2 | d-lysozyme: heat-denatured hen egg-white lysozyme |  |  |  |  |  |  | more pronounced
